In the nanobody polyreactivity screen of Harvey et al. (2022):

Assay: yeast display, Sf9 membrane polyspecificity reagent, FACS + sequencing; frameworks hold sequencing errors
Summary of the method: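 Galactose-induced (36–48 hours) yeast carrying a synthetic nanobody display library were exposed to 10% biotinylated, detergent-solubilized Sf9 membrane reagent at 4 °C for 1 hour. FACS followed streptavidin microbead enrichment, using low and high (top ~1%) gates for expression (anti-HA) and reagent binding (streptavidin). Colony PCR, MiSeq 2 × 250 sequencing and CDR-length filtering followed. Labels for polyreactivity reflect the gate of origin.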

| Sequence | polyreactivity (PSR sort gate) |
| --- | --- |
| QVQLVESGGGLVQAGGSLRLSCAASGSIFGLYVMGWDRQAPGKERELVATITSGGSTYYADSVKGRFTISRDNAKNTVYLQMNSLKPEDTAVYYCAADPQDAAYLKYLFYDYDYWGQGTQVTVSS | low polyreactivity |
| QVQLVESGGGLVQAGGSLRLSCAASGITFVLYAMGWYRQAPGKERELVAAISSGGRTKYADSVKGRFTISRDNAKNTVYLQMNSLKPEDTAVYYCATKTRYLYPAYYYWGQGTQVTVSS | high polyreactivity |
| QVQLVESGGGLVQAGGSLRLSCAASGRIFVYNAMGLYRQAPGKERELVAAISSTGSTNYADSVKGRFTISRDNAKNTVYLQMNSLKPEDTAVYYFAAVYYFYGYSGYYGQYDYWGQGTQVTVSS | low polyreactivity |
| QVQLVESGGGLVQAGGSLRLSCAASGFIFSRYVMGWYRQAPGKERELVAAISSSGGRTYYADSVKGRFTISRDNAKNTVYLQMNCLKPEDTAVYYCAAKPLPGGADTTSPRYDYWGQGTQVTVSS | high polyreactivity |
| QVQLVESGGGLVQAGGSLRLSCAASGITFVDNAMGWYRQAPGKERELVAVISSSGGSTYYADSVKGRFTISRDNAKNTVYLQMNSLKPEDTAVYYCAARNRFYRRPYDYWGQGTQVTVSS | high polyreactivity |
| QVQLVESWGGLVQAGGSLRLSCADSGSIFGYYAMGWSRHAPGKETELVAAISSGGRTDYADSVKGRFTISRDNAKNTVYLQMNSRKQEDTAVYYCAALQRTGPYAGSSGYWGQGTQVTVSS | high polyreactivity |
| QVQLVESGGGLLQAGGSLRLSCAASGFTFRYYAMGWYRQAPGKERELVAAISRSGGSTYYADSVKGRFTISRDNAKNTVYLQMNSLKPEDTAVYYCAADDRYGSRYYYWGQGTQVTVTS | high polyreactivity |
| PVQLVESGGRLVQEGGSLRLICAASARIFPYYSMGWSRPAPGKERELVAAITTSGCRTYYADSVKGRFTISRDNAKYSVYLLMNSMKPEYTAVYVCNKYARGYDMDYWGQGTQVTVSS | high polyreactivity |
| QVQLVESGGGLVQAGGSLRLSCAASGRTFRLYAMGWYRQAPGKERELVAVIRAGDSTNYADSVKGRFTISRDNAKNTVYLQLNSLKPDDTAVSYCAADVLYYYGKYDYWGQGTQVTVSS | high polyreactivity |
| QVQLVESGGGLVQAGGSLRLSCAASGFIFKGYAMGWYRQSPGKERELVAVISTSGDRTYYADSVKGRFTISRDNAKNTVYLQMNSLKPEDTAVYYCAAKASPYGGRQKGYDYWGQGTQVTVSS | high polyreactivity |
| QVQLVESGGGLVQAGGSLRLSCAASGRTFVANAMGLYRQAPGKERELVAAISSSGGSTYYADSVKGRFTISRDYAKNTVYLQMNSLKPEDTAVYYCNRVGVYYRLYPYYYWGQGTQVTVSS | high polyreactivity |
| QVQLVESGGGLVQAGGSLRLSCAASGIIFSRYAMGWYRPAPGKVRELVASITGRVGSTYYADSVKGPFTISRDNAKNTVYLQMNRLNPEDTAVYYCAADYVYKFDYWGHGTQVTVSS | low polyreactivity |
| QVQLVESGGGLVQAGGSLRLSCAPSGSIVNRYALGWYRQAPGKEREFVAAITRRGGYTYYADSVKGRFTISRDNAKNSVYLPLNSLKPEDTAVYYCAAPFYYPAGLLYYENNYWRQGTQVTVSS | high polyreactivity |
| QVQLVESGGGLVQAGGSLRLSCAASGSTFYNNAMGWYRQAPGKERELVAAISNVSTYYADSVKGRFTISRDNAKNTVYLQMNSLKPEDTAVYYCAARVLLWYYSWRYYYWGQGTQVTVSS | low polyreactivity |
| QVQLVESGGGLVQAGGSLRLSCAASGSTFTIYAMGWYRQAPGKERELVAAITWNGGSTYYADSVKGRFTISRDNAKKTVYLQMNRLKPEDTAVYYCAAKFRYQYVRVAREYYYWGQGTQVTVSS | high polyreactivity |
| QDQLVESGGGLVQAGGSLRLSCAASGSTFSFYAMGWTRQAPGKERELVAAISRSGGSTFYADSVKGRFTISRDNAKNTVYLQMNSLKPEDSAVYYCAAYGGLQSRYYYWGQGTQVTVSS | high polyreactivity |
| QVQLVESGGGLVQAGGSLRLSCAASGSTFHSYAMGRYRQAPGKEREFVAAITIRGGSTYYADSVKGRFTISRDNAKNTVYLQMNSLKPEDTAVYYCAALVWGSYARWRYYWGQGTQVTVSS | high polyreactivity |
| QVQLVESGGGLVQAGGSLRLSCAASGRTFGQNTMGWYRQAPGKERELVAAIRNRGGSTYYADSVKGRFTISRDNAKKTGYVQMNSLKPEDTAVYYCAAYPYWKGDYWGQGTQVTVSS | high polyreactivity |
| QVQLVESGGGLVQAGGSLRLSCAASGSISTVYAMGWSRQAPGKERELVAAISWSGGSTYYADSVKGRFTISRDNAKNTDYLQMNSLKPEDTAFYYCAVRGLLYHSYYSVRYDYWGQGTQVTVSS | high polyreactivity |
| QVQLVESGGGLVQAGGSLRLSCAASGRIWVNAMAWYRQAPRKEMEFVAAISTSSASTYYADSVKGRFTISRDNAKNTVYLQMNSLKPVDTAVYYCAARYLGKKFYYWGQGTQVTVSS | high polyreactivity |
| QVQLVESGGGLVQAGGSLRLSCAASGSIFYLYAMGWYRQAPGKETEVVAAITSIGGSTYADSVKGRFTISRDNAKNTVYLQLNSLKPDDTAVYYCNTDVYPLTVQVQYYYWGQGTQVTVSS | low polyreactivity |
| QVQLVESGGGLVQAGGSLRLICAASGYIFDYYAMGWYRQAPGKERELVAAISWSGGSTYYADSVKGRFTISRDNEKNTVSLQMNSLKPEDTAVYYCAAEGTYYGSDYWGQGTQVTVSS | high polyreactivity |

| Sequence | polyreactivity (PSR sort gate) |
| --- | --- |
| QVQLVESGGGLVQAGGSLRLSCAASGGISYRYAMGWYRQAPGKERELVARISRGTGTHYADSVKGRFTISRDNAKNTVYLQMNSLTPEDTAVYYCAAESYRGYYLSLNYWGQGTQVTVSS | high polyreactivity |
| QVQLVESGVGLVQAGGSLRLSCAASGRIFGVYVMGWYRQAPGKERELVAGISPSGGSTYYADSVKGRFTISRDNAKNTVYLQMNSLKPEDTAVYYCAAVLRIRRPRYGYWGQGTQVTVSS | high polyreactivity |
| QVQLVESGGGLVQAGGSLRLICAACGFTLTGYTMGWYRQAPGKERELVAAITSRGGTTYYADSVKGRFTISRDNAKYTVYLQMNSLKPEDTAVYYCNVVYPYLEYDYWGQGTQVTVSS | high polyreactivity |
| QVQLVESGGGLVQAGGSLRLSCAASGNIFGKYAMGWYRQAPGKERELVAAISSGGRTNYADSVKGRFTISRDNAKNTVYLQMNSLKPEDTAVYYCAKRYFRTKGYYYWGQGTQVTVSS | high polyreactivity |
| QVQLVESGGGLVQAGGSLRLSCAASGSTYTYALGWSRQAPGKERELVADITQSGGSTYYADSVKGRFTISRDNAKNTVYLQMNSLKTEDTAVYYCNAESRHVFEDEYWGQGTQVTGSS | low polyreactivity |
| QVQLVESVGGLVQAGGSLRLSCAASGITFFGNAMGWYRQAPGKERELVASISNGDNTNYADSVKGRFTISRDNAKNTVYLQMNSLKPEDTAVYYCAAWLAYSSRYGYWGQGTQVSVSS | low polyreactivity |
| QVQLVDSGGGLVQAGGSLRLSCAASVITFGYYAMGWYRQAPGKERELVAAISRSGGNTRYADSVKGRFTISRDNAKNTVYLQMNSLKTDDTAVYYCAKRTTYSDDYWGQGTQVTVSS | high polyreactivity |
| QVQLVESGGGLVQAGGSLRLSCAASGFTFVQYAMGWYRQAPGKERELVATISKSGGITYYADSVKGRFKISRDYAKNTVYLQMNSLKPEDTAVYYCAASWYYSSRGFHATWGHDYWGQGTQVTVSS | low polyreactivity |
| QVQLVESGGGLVQAGGSLRLSCAASGSTFWFYAMGWYRQAPGKERELVAVISNSGSTYYADSVKGRFTISRDNAKNTVYLQMNSLKPEDTAVYYCAAYAYQYRFSGYGYWGQGTQVTVSS | low polyreactivity |
| QVQLVESGGGLVQAGGSLRLSCAASGSILYVYAMGWYRQAPGKEWELVAVITSGGSTNYADSVKGRFTISRDNAKNTVYLQMNSLKPEDTAVYYCAADPYSVYGGDYWGQGTQVTVSS | low polyreactivity |
| QVQLVESGGGLVQAGGSLRLSCAASGRTFQKYAMGWYRQAPGKERELVAAITGSGGSTYYADSVKGRFTISRDIAKYTVYLQMNSLKPEDTAVYYCAAYAYGVWHSQDGGNYWGQGTLVTVSS | low polyreactivity |
| QVQLVESGRGLDQAGGSLRISSAASGNTYKGHAMGWYRHAPGKERELVAAISWSTDSTYYADSVKGRFTISRDNAKNTVYLQMNSLKPEDTAIYYCAAYYSHLTIAWYYYWGQGTQVNVSS | low polyreactivity |
| QVQLVESCGGLVQAGGSLRLSCAASGFTFWRYAMGWYRQAPGKERELVAAISRTGGRTYYADSVKGRFTISRDNAKNTVYLQMNSLKPEDTAVYYCAAVKYETYRYNYDYWGQGTQVTVSS | high polyreactivity |
| QVQLVESGGGLVQAGGSLRLSCAASGRTFAQYGMGWYRQAPGKERELVAAISRSGGRTYYADSVKGRFTISRDNAKNTVYLQMNSLKPEDTAVYYCAARAYLISSSTPFWTGYDSWGHGTQVTVSS | low polyreactivity |
| QVQLVETGGGLVHAGGSLRLSCAASGSIFQGHAMGWYRQAPGKERELVAAISRNGGRTYYADSVKGRFTISRDNAKNTVYLQMNSLKPEDTAVYYCAAYHNVEYDYWGQGTQVTVSS | high polyreactivity |
| QVQLVESGGGLVQAGGSLRLSCAASGFTFEKYSMGWYRQAPGKERELVAAITQSAGSTYADSVKGRFTISRDNAKNTVYLQMISLKPEDTAVYYFAARYRYPYYARYGYWGQGTQVTVSS | high polyreactivity |
| QVQLVESGGGLVQAGGSLRLSCAASGFTFRRYAMGWYRQAPGKERELVAAISYSGGSTNYADSVKGRFTISRDNAKNTVYLQMNSLKPEDTAVYYCATTSRAWGRGYDYWGQGTQVTVSS | low polyreactivity |
| QVHLVESGGGLVQAGGSLRLSCAASGFTFPEYYMGWYRQAPGKESELVAAINYSDGRTFYADSVKGRFTISRDNAKNSVYLQMNSLKPEDTAVYYCASDLSYDVWFFGPDYDYSGQGTQVTVSS | low polyreactivity |
| QVQLVESGGGLVQAGGSLRLSCAASGRIFYFYAMGWYRQAPGKERELVAAISTSGGSTYYADSVKGRFTISRDNAKNTVYLQMNRLKPEDTAVYYCASRFRYYGSEYDYWGQGTQVTVSS | low polyreactivity |
| QVQLVESGGGLVQAGGSLRLTCAASGFIFEHYAMGWYRQAPGKERELVARISWRGGSTYYADSVKGRFTISRDNAKNTVYFQMNSLKPEDTAVYYCNAQEVVYFGYYPSDYWGQGTQVTVSS | low polyreactivity |
| QVQLVESGGGLVQAGGSIRISCAASGSIFIIYAMGWYRQATGKEWELVAGIRGRCGSTYYADSVKGRFTISRDNAKNTVYLQMNSLKPEDTAVYYCDASVYRGYNYWGQGTQVTVSW | high polyreactivity |
